Measured values reported in patent publication US20240279325A1 (Chugai, published 2024).

molecular target: T1, human FcγRIIIa type V (allotype V158) extracellular domain with C-terminal His tag (human, UniProt P08637 17-208); experiment: SPR (Biacore), antibody captured, FcγR analyte
T1 construct: also called FcγRIIIaV
T1 sequence (P08637 other isoform, or with tags, fused parts or gaps): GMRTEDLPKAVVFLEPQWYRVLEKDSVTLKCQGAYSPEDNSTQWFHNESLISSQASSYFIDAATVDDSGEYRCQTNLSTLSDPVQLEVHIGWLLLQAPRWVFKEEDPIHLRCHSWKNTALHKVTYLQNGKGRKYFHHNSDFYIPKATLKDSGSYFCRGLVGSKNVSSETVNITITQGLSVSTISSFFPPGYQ

Binder	Kd
IL6R-BP078/IL6R-L (antibody, human IgG1, kappa, name in EU numbering, Alterations introduced into IL6R-B3; also called P238D/A330M; copies: 2 + 2) heavy: QVQLQESGPGLVKPSETLSLTCAVSGHSISHDHAWSWVRQPPGEGLEWIGFISYSGITNYNPSLQGRVTISRDNSKNTLYLQMNSLRAEDTAVYYCARSLARTTAMDYWGEGTLVTVSSASTKGPSVFPLAPSSKSTSGGTAALGCLVKDYFPEPVTVSWNSGALTSGVHTFPAVLQSSGLYSLSSVVTVPSSSLGTQTYICNVNHKPSNTKVDKKVEPKSCDKTHTCPPCPAPELLGGDSVFLFPPKPKDTLMISRTPEVTCVVVDVSHEDPEVKFNWYVDGVEVHNAKTKPREEQYNSTYRVVSVLTVLHQDWLNGKEYKCKVSNKALPMPIEKTISKAKGQPREPQVYTLPPSRDELTKNQVSLTCLVKGFYPSDIAVEWESNGQPENNYKTTPPVLDSDGSFFLYSKLTVDKSRWQQGNVFSCSVMHEALHNHYTQESLSLSP light: not shown	78 µM
IL6R-BP110/IL6R-L (antibody, human IgG1, kappa, name in EU numbering, Alterations introduced into IL6R-B3; also called P238D/H268N; copies: 2 + 2) heavy: QVQLQESGPGLVKPSETLSLTCAVSGHSISHDHAWSWVRQPPGEGLEWIGFISYSGITNYNPSLQGRVTISRDNSKNTLYLQMNSLRAEDTAVYYCARSLARTTAMDYWGEGTLVTVSSASTKGPSVFPLAPSSKSTSGGTAALGCLVKDYFPEPVTVSWNSGALTSGVHTFPAVLQSSGLYSLSSVVTVPSSSLGTQTYICNVNHKPSNTKVDKKVEPKSCDKTHTCPPCPAPELLGGDSVFLFPPKPKDTLMISRTPEVTCVVVDVSNEDPEVKFNWYVDGVEVHNAKTKPREEQYNSTYRVVSVLTVLHQDWLNGKEYKCKVSNKALPAPIEKTISKAKGQPREPQVYTLPPSRDELTKNQVSLTCLVKGFYPSDIAVEWESNGQPENNYKTTPPVLDSDGSFFLYSKLTVDKSRWQQGNVFSCSVMHEALHNHYTQESLSLSP light: not shown	64 µM
IL6R-BP103/IL6R-L (antibody, human IgG1, kappa, name in EU numbering, Alterations introduced into IL6R-B3; also called P238D/S267V; copies: 2 + 2) heavy: QVQLQESGPGLVKPSETLSLTCAVSGHSISHDHAWSWVRQPPGEGLEWIGFISYSGITNYNPSLQGRVTISRDNSKNTLYLQMNSLRAEDTAVYYCARSLARTTAMDYWGEGTLVTVSSASTKGPSVFPLAPSSKSTSGGTAALGCLVKDYFPEPVTVSWNSGALTSGVHTFPAVLQSSGLYSLSSVVTVPSSSLGTQTYICNVNHKPSNTKVDKKVEPKSCDKTHTCPPCPAPELLGGDSVFLFPPKPKDTLMISRTPEVTCVVVDVVHEDPEVKFNWYVDGVEVHNAKTKPREEQYNSTYRVVSVLTVLHQDWLNGKEYKCKVSNKALPAPIEKTISKAKGQPREPQVYTLPPSRDELTKNQVSLTCLVKGFYPSDIAVEWESNGQPENNYKTTPPVLDSDGSFFLYSKLTVDKSRWQQGNVFSCSVMHEALHNHYTQESLSLSP light: not shown	110 µM
IL6R-2B169/IL6R-L (antibody, human IgG1, kappa, name in EU numbering, Alterations introduced into IL6R-B3; also called P238D/V323I; copies: 2 + 2) heavy: QVQLQESGPGLVKPSETLSLTCAVSGHSISHDHAWSWVRQPPGEGLEWIGFISYSGITNYNPSLQGRVTISRDNSKNTLYLQMNSLRAEDTAVYYCARSLARTTAMDYWGEGTLVTVSSASTKGPSVFPLAPSSKSTSGGTAALGCLVKDYFPEPVTVSWNSGALTSGVHTFPAVLQSSGLYSLSSVVTVPSSSLGTQTYICNVNHKPSNTKVDKKVEPKSCDKTHTCPPCPAPELLGGDSVFLFPPKPKDTLMISRTPEVTCVVVDVSHEDPEVKFNWYVDGVEVHNAKTKPREEQYNSTYRVVSVLTVLHQDWLNGKEYKCKISNKALPAPIEKTISKAKGQPREPQVYTLPPSRDELTKNQVSLTCLVKGFYPSDIAVEWESNGQPENNYKTTPPVLDSDGSFFLYSKLTVDKSRWQQGNVFSCSVMHEALHNHYTQESLSLSP light: not shown	75 µM
IL6R-BP102/IL6R-L (antibody, human IgG1, kappa, name in EU numbering, Alterations introduced into IL6R-B3; also called P238D/S267Q; copies: 2 + 2) heavy: QVQLQESGPGLVKPSETLSLTCAVSGHSISHDHAWSWVRQPPGEGLEWIGFISYSGITNYNPSLQGRVTISRDNSKNTLYLQMNSLRAEDTAVYYCARSLARTTAMDYWGEGTLVTVSSASTKGPSVFPLAPSSKSTSGGTAALGCLVKDYFPEPVTVSWNSGALTSGVHTFPAVLQSSGLYSLSSVVTVPSSSLGTQTYICNVNHKPSNTKVDKKVEPKSCDKTHTCPPCPAPELLGGDSVFLFPPKPKDTLMISRTPEVTCVVVDVQHEDPEVKFNWYVDGVEVHNAKTKPREEQYNSTYRVVSVLTVLHQDWLNGKEYKCKVSNKALPAPIEKTISKAKGQPREPQVYTLPPSRDELTKNQVSLTCLVKGFYPSDIAVEWESNGQPENNYKTTPPVLDSDGSFFLYSKLTVDKSRWQQGNVFSCSVMHEALHNHYTQESLSLSP light: not shown	82 µM
IL6R-2B128/IL6R-L (antibody, human IgG1, kappa, name in EU numbering, Alterations introduced into IL6R-B3; also called P238D/Y296D; copies: 2 + 2) heavy: QVQLQESGPGLVKPSETLSLTCAVSGHSISHDHAWSWVRQPPGEGLEWIGFISYSGITNYNPSLQGRVTISRDNSKNTLYLQMNSLRAEDTAVYYCARSLARTTAMDYWGEGTLVTVSSASTKGPSVFPLAPSSKSTSGGTAALGCLVKDYFPEPVTVSWNSGALTSGVHTFPAVLQSSGLYSLSSVVTVPSSSLGTQTYICNVNHKPSNTKVDKKVEPKSCDKTHTCPPCPAPELLGGDSVFLFPPKPKDTLMISRTPEVTCVVVDVSHEDPEVKFNWYVDGVEVHNAKTKPREEQDNSTYRVVSVLTVLHQDWLNGKEYKCKVSNKALPAPIEKTISKAKGQPREPQVYTLPPSRDELTKNQVSLTCLVKGFYPSDIAVEWESNGQPENNYKTTPPVLDSDGSFFLYSKLTVDKSRWQQGNVFSCSVMHEALHNHYTQESLSLSP light: not shown	72 µM
IL6R-BP116/IL6R-L (antibody, human IgG1, kappa, name in EU numbering, Alterations introduced into IL6R-B3; also called P238D/K326T; copies: 2 + 2) heavy: QVQLQESGPGLVKPSETLSLTCAVSGHSISHDHAWSWVRQPPGEGLEWIGFISYSGITNYNPSLQGRVTISRDNSKNTLYLQMNSLRAEDTAVYYCARSLARTTAMDYWGEGTLVTVSSASTKGPSVFPLAPSSKSTSGGTAALGCLVKDYFPEPVTVSWNSGALTSGVHTFPAVLQSSGLYSLSSVVTVPSSSLGTQTYICNVNHKPSNTKVDKKVEPKSCDKTHTCPPCPAPELLGGDSVFLFPPKPKDTLMISRTPEVTCVVVDVSHEDPEVKFNWYVDGVEVHNAKTKPREEQYNSTYRVVSVLTVLHQDWLNGKEYKCKVSNTALPAPIEKTISKAKGQPREPQVYTLPPSRDELTKNQVSLTCLVKGFYPSDIAVEWESNGQPENNYKTTPPVLDSDGSFFLYSKLTVDKSRWQQGNVFSCSVMHEALHNHYTQESLSLSP light: not shown	72 µM

More lines, in order of falling Kd, values ahead:

Kd	Binder
63 µM	IL6R-BP107/IL6R-L (antibody, human IgG1, kappa, name in EU numbering, Alterations introduced into IL6R-B3; also called P238D/H268E; copies: 2 + 2) heavy: QVQLQESGPGLVKPSETLSLTCAVSGHSISHDHAWSWVRQPPGEGLEWIGFISYSGITNYNPSLQGRVTISRDNSKNTLYLQMNSLRAEDTAVYYCARSLARTTAMDYWGEGTLVTVSSASTKGPSVFPLAPSSKSTSGGTAALGCLVKDYFPEPVTVSWNSGALTSGVHTFPAVLQSSGLYSLSSVVTVPSSSLGTQTYICNVNHKPSNTKVDKKVEPKSCDKTHTCPPCPAPELLGGDSVFLFPPKPKDTLMISRTPEVTCVVVDVSEEDPEVKFNWYVDGVEVHNAKTKPREEQYNSTYRVVSVLTVLHQDWLNGKEYKCKVSNKALPAPIEKTISKAKGQPREPQVYTLPPSRDELTKNQVSLTCLVKGFYPSDIAVEWESNGQPENNYKTTPPVLDSDGSFFLYSKLTVDKSRWQQGNVFSCSVMHEALHNHYTQESLSLSP light: not shown
59 µM	IL6R-BP100/IL6R-L (antibody, human IgG1, kappa, name in EU numbering, Alterations introduced into IL6R-B3; also called P238D/S267A; copies: 2 + 2) heavy: QVQLQESGPGLVKPSETLSLTCAVSGHSISHDHAWSWVRQPPGEGLEWIGFISYSGITNYNPSLQGRVTISRDNSKNTLYLQMNSLRAEDTAVYYCARSLARTTAMDYWGEGTLVTVSSASTKGPSVFPLAPSSKSTSGGTAALGCLVKDYFPEPVTVSWNSGALTSGVHTFPAVLQSSGLYSLSSVVTVPSSSLGTQTYICNVNHKPSNTKVDKKVEPKSCDKTHTCPPCPAPELLGGDSVFLFPPKPKDTLMISRTPEVTCVVVDVAHEDPEVKFNWYVDGVEVHNAKTKPREEQYNSTYRVVSVLTVLHQDWLNGKEYKCKVSNKALPAPIEKTISKAKGQPREPQVYTLPPSRDELTKNQVSLTCLVKGFYPSDIAVEWESNGQPENNYKTTPPVLDSDGSFFLYSKLTVDKSRWQQGNVFSCSVMHEALHNHYTQESLSLSP light: not shown
57 µM	IL6R-2B171/IL6R-L (antibody, human IgG1, kappa, name in EU numbering, Alterations introduced into IL6R-B3; also called P238D/V323L; copies: 2 + 2) heavy: QVQLQESGPGLVKPSETLSLTCAVSGHSISHDHAWSWVRQPPGEGLEWIGFISYSGITNYNPSLQGRVTISRDNSKNTLYLQMNSLRAEDTAVYYCARSLARTTAMDYWGEGTLVTVSSASTKGPSVFPLAPSSKSTSGGTAALGCLVKDYFPEPVTVSWNSGALTSGVHTFPAVLQSSGLYSLSSVVTVPSSSLGTQTYICNVNHKPSNTKVDKKVEPKSCDKTHTCPPCPAPELLGGDSVFLFPPKPKDTLMISRTPEVTCVVVDVSHEDPEVKFNWYVDGVEVHNAKTKPREEQYNSTYRVVSVLTVLHQDWLNGKEYKCKLSNKALPAPIEKTISKAKGQPREPQVYTLPPSRDELTKNQVSLTCLVKGFYPSDIAVEWESNGQPENNYKTTPPVLDSDGSFFLYSKLTVDKSRWQQGNVFSCSVMHEALHNHYTQESLSLSP light: not shown
55 µM	IL6R-BP106/IL6R-L (antibody, human IgG1, kappa, name in EU numbering, Alterations introduced into IL6R-B3; also called P238D/H268D; copies: 2 + 2) heavy: QVQLQESGPGLVKPSETLSLTCAVSGHSISHDHAWSWVRQPPGEGLEWIGFISYSGITNYNPSLQGRVTISRDNSKNTLYLQMNSLRAEDTAVYYCARSLARTTAMDYWGEGTLVTVSSASTKGPSVFPLAPSSKSTSGGTAALGCLVKDYFPEPVTVSWNSGALTSGVHTFPAVLQSSGLYSLSSVVTVPSSSLGTQTYICNVNHKPSNTKVDKKVEPKSCDKTHTCPPCPAPELLGGDSVFLFPPKPKDTLMISRTPEVTCVVVDVSDEDPEVKFNWYVDGVEVHNAKTKPREEQYNSTYRVVSVLTVLHQDWLNGKEYKCKVSNKALPAPIEKTISKAKGQPREPQVYTLPPSRDELTKNQVSLTCLVKGFYPSDIAVEWESNGQPENNYKTTPPVLDSDGSFFLYSKLTVDKSRWQQGNVFSCSVMHEALHNHYTQESLSLSP light: not shown
53 µM	IL6R-2B002/IL6R-L (antibody, human IgG1, kappa, name in EU numbering, Alterations introduced into IL6R-B3; also called P238D/E233D; copies: 2 + 2) heavy: QVQLQESGPGLVKPSETLSLTCAVSGHSISHDHAWSWVRQPPGEGLEWIGFISYSGITNYNPSLQGRVTISRDNSKNTLYLQMNSLRAEDTAVYYCARSLARTTAMDYWGEGTLVTVSSASTKGPSVFPLAPSSKSTSGGTAALGCLVKDYFPEPVTVSWNSGALTSGVHTFPAVLQSSGLYSLSSVVTVPSSSLGTQTYICNVNHKPSNTKVDKKVEPKSCDKTHTCPPCPAPDLLGGDSVFLFPPKPKDTLMISRTPEVTCVVVDVSHEDPEVKFNWYVDGVEVHNAKTKPREEQYNSTYRVVSVLTVLHQDWLNGKEYKCKVSNKALPAPIEKTISKAKGQPREPQVYTLPPSRDELTKNQVSLTCLVKGFYPSDIAVEWESNGQPENNYKTTPPVLDSDGSFFLYSKLTVDKSRWQQGNVFSCSVMHEALHNHYTQESLSLSP light: not shown
48 µM	IL6R-2B172/IL6R-L (antibody, human IgG1, kappa, name in EU numbering, Alterations introduced into IL6R-B3; also called P238D/V323M; copies: 2 + 2) heavy: QVQLQESGPGLVKPSETLSLTCAVSGHSISHDHAWSWVRQPPGEGLEWIGFISYSGITNYNPSLQGRVTISRDNSKNTLYLQMNSLRAEDTAVYYCARSLARTTAMDYWGEGTLVTVSSASTKGPSVFPLAPSSKSTSGGTAALGCLVKDYFPEPVTVSWNSGALTSGVHTFPAVLQSSGLYSLSSVVTVPSSSLGTQTYICNVNHKPSNTKVDKKVEPKSCDKTHTCPPCPAPELLGGDSVFLFPPKPKDTLMISRTPEVTCVVVDVSHEDPEVKFNWYVDGVEVHNAKTKPREEQYNSTYRVVSVLTVLHQDWLNGKEYKCKMSNKALPAPIEKTISKAKGQPREPQVYTLPPSRDELTKNQVSLTCLVKGFYPSDIAVEWESNGQPENNYKTTPPVLDSDGSFFLYSKLTVDKSRWQQGNVFSCSVMHEALHNHYTQESLSLSP light: not shown
